In patent publication CN116239684A (WUHAN ABCLONAL CO LTD, dated 2023):
Numbering of substitutions follows the chain as printed.

B1: 兔单克隆抗体2G2 (rabbit monoclonal antibody 2G2 against human calreticulin) (antibody, V domains shown)
VH: QEQLEESGGGLVQPEGSLTLTCTASGFSINNNYWICWVRQAPGKGLEWVGCISIADNSNTYYATWAKGRVTISKTSSTTVTLQMTSLTAADTATYFCARGPAVISFNLWGPGTLVTVSS
VL: AQVLTQTPSSTSAAVGGTVTINCQASESVYGNNRLAWYQQKPGQPPKRLIYDASTLASGVPSRFSGSGSGKQFTLTMSGVQCDDAATYYCIGHFYSGINSISFGGGTEVVVKG
notes: Recombinant rabbit IgG made in 293F cells; also called 2G2抗体; 兔抗人CALR单克隆抗体2G2
B2: 兔单克隆抗体3B3 (rabbit monoclonal antibody 3B3 against human calreticulin) (antibody, V domains shown)
VH: QSLEESGGGLVQPEGSLTLTCTASGFSFSSSYWICWVRQAPGKGLEWIGCISIDDNSNTYYASWAKGRVTISKTSSTTVTLQMTSLTAADTATYFCARGPGIIFYNLWGPGTLVTVSS
VL: B1 VL with G31N, T55K, S65K, S96T, G97S, I101V, S102T
notes: Recombinant rabbit IgG made in 293F cells; also called 3B3抗体; 兔抗人CALR单克隆抗体3B3

Biological target: 重组人CALR融合蛋白 (recombinant human calreticulin fusion protein, residues 18-203, Example 1) (human, UniProt P27797 18-203)
Sequence (P27797 18-203): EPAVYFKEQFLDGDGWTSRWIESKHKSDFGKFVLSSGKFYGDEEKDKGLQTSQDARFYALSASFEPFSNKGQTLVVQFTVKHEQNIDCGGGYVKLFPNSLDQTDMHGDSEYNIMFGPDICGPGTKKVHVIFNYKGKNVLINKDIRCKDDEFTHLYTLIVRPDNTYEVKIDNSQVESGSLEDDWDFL
Test: SPR, Biacore 3000, curve fitting

| Binder | Kd [nM] |
| --- | --- |
| B1 | 4.88 |
| B2 | 4.34 |
